{"source": "the nanobody polyreactivity screen of Harvey et al. (2022)", "assay": "yeast display, Sf9 membrane polyspecificity reagent, FACS + sequencing; frameworks hold sequencing errors", "in_short": "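Using colony PCR, genes from sorted yeast display clones were amplified, then sequenced on MiSeq at 2 × 250 and filtered by CDR length. The clones had been stained with 10% biotinylated, detergent-solubilized Sf9 membrane reagent for 1 hour at 4 °C and sorted by FACS into low and high (top ~1%) gates on anti-HA and streptavidin fluorescence. Polyreactivity labels come from the gate of origin.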", "data": [{"sequence": "QVQLVESGGGLVQAGGSLRLSCAASGGTFHGYAMGWYRQAPGKERELVAAINWSGTSTYYADSVKGRFTISRDNAKNTVYLQMNRLKPEDTAVYYCAAAYFRGTYYYWGQGTQVTVSS", "values": [{"measurement": "polyreactivity (PSR sort gate)", "value": "high polyreactivity"}]}, {"sequence": "QVQLVESGGGLVQAGGSLRLSCAASGITLYRYVMGWYRQAPGKERELLADISGRGTSTYYADSVKGRFTISRDNAKNTVYLQMNSLNAEDTAVYYCNAEFTKSGALVIPYTYYYAEDYWGQGSQVTVSS", "values": [{"measurement": "polyreactivity (PSR sort gate)", "value": "low polyreactivity"}]}, {"sequence": "QDQLVESGGGLVQAGGSLRLSCAASGFIFSQYAMGWYRHAPGKERELVAAISTSGGSTYYADSVKGRFTISRDNAKNTVYLQMNSLKPEDTAVYYCAAARITRGRRYDYWGQGTQVTVSS", "values": [{"measurement": "polyreactivity (PSR sort gate)", "value": "high polyreactivity"}]}, {"sequence": "QDQLVESGGGLVQAGGSLRLSCAASGRIFPYYAMGRYRQAPGKERELVASISGSGGRTYYADSVKGRFTISRDNAKNTVSLQMNSLKPEDTAVYYCAAYWYKVPGKYGYWGQGTQVTVSS", "values": [{"measurement": "polyreactivity (PSR sort gate)", "value": "high polyreactivity"}]}, {"sequence": "QVQLVESRRGLVQAGGSIRLSCAASGSTFPYNAMGWYRQAPGKDRELVAAITSAGGTNYADSVKGRFTISRDNAKNSVYLQMNSLKPEDSAVYSCAAVGSGYYDGYFYWGQGTQVTVSS", "values": [{"measurement": "polyreactivity (PSR sort gate)", "value": "low polyreactivity"}]}, {"sequence": "QVQLVESVGGLVQAGGSLRLSCAASGRTFGRYAMGWYRKAPGKERELVAAINRGGSTKYADSVKGRFTISRDNAKNTVYFQMNSLKPEDTAVDYCAKDRHPALHYDYWGQGTQVTVSS", "values": [{"measurement": "polyreactivity (PSR sort gate)", "value": "low polyreactivity"}]}, {"sequence": "QVQLVESGGGLVQAGGSLRLSCAASGRIFKYNAMGWYRQAPGKERELLAAITRGGSTNYADSVKGRFTISRDNAKNTVYLQMNSLKPEDTAVYYCAALRSRYGRDMDYWGQGTQVTVSS", "values": [{"measurement": "polyreactivity (PSR sort gate)", "value": "high polyreactivity"}]}, {"sequence": "QVQLVESGGGLVQAGGSLRLSCAAYSYVMGWYRQAPGKERELVAAISQSGGSTYYADSVKGRFTISRDNAKNTVYLQMNSLKPEDTADYYCAARREPYQYNQYYSWGQGTQVTVSS", "values": [{"measurement": "polyreactivity (PSR sort gate)", "value": "high polyreactivity"}]}, {"sequence": "QVQLVESGGGLVQAGGSLRLICAASGFTFGYYAMGWYRQAPGKERELVAAITSRGTRTSYADSVKGRFTISRDNEKNTVYLQMNSLKPEDTAVNYCAARVLRGLGEYYWGQGTQVTVSS", "values": [{"measurement": "polyreactivity (PSR sort gate)", "value": "high polyreactivity"}]}, {"sequence": "QVQLVESGGGLVQAGGSLRLSCVASGRTFGNNAMGWYRQAHGKERELVAAITSGGSTNYADSVKGCFTISRDNAKNTVYLQMNSLKPEDTAVYYCAAKQYRAGGGYWGQGSQVTVSS", "values": [{"measurement": "polyreactivity (PSR sort gate)", "value": "high polyreactivity"}]}, {"sequence": "QVQLVESGGGLVQAGGSLRLSCAASGITFEGYAMRWYRQAPGKERELVAAITGSGSTTYYADSVKGRFTISRDNAKNTVYLQMNSLKPEDTAVYYCAADVSYKLYWGQGTQVTVSS", "values": [{"measurement": "polyreactivity (PSR sort gate)", "value": "low polyreactivity"}]}, {"sequence": "QDQLVESVGDLVQAGGSLRLSCAASGGIFQKYVMGWYRQAPGKERELVARITSVGSTYYADSVKGRFTISRDNAKNTVYLQMNSLKPEDTAVYYCNAELYRRSQGYRFTAFDYWGQGTQVTVSS", "values": [{"measurement": "polyreactivity (PSR sort gate)", "value": "low polyreactivity"}]}, {"sequence": "QVQLVESGGGLVQAGGSLRLSCAASGSTFYVNTMGGSRQAPGKERELVAAISGSGGSTYYADSVKGRFTISRDNAKNTVYLQMNCLKPEETAVYYCAAYGWRLWYRFNYWGQGTQVTVSS", "values": [{"measurement": "polyreactivity (PSR sort gate)", "value": "high polyreactivity"}]}, {"sequence": "QVQLVESGGGLVQAGGSLRLSCAASGITFHRYAMGWYRQAPGKERELVAAITKRGGSTNYADSVKGRFTISRDNAKNTVYLQMNSLKPEDTAVYYCNARSTWPSGRYAHYRRYYYWGQGTQVTVSS", "values": [{"measurement": "polyreactivity (PSR sort gate)", "value": "high polyreactivity"}]}, {"sequence": "QVQLEESGGGLVQAGGSLRLSCAASGFIFDYYAMGWYRQAPGKERELVAAISSSGGSTYADSVKGRFTISRDNAKNTVYLQMNSLKPEDTAVYYCAADWYKRPPYDYWGQGTQVTVSS", "values": [{"measurement": "polyreactivity (PSR sort gate)", "value": "low polyreactivity"}]}, {"sequence": "QVQLVESGGGLVQAGGSLRLSCAASGSIFKKYAMGWYRPAPGKERELVAAITRGTYYADSVKGRFTISRDNAKNTVYLQMNSLKPEDTAVYDCNREYWGRGYYRVRGEYDYWGQGTQVSVSS", "values": [{"measurement": "polyreactivity (PSR sort gate)", "value": "low polyreactivity"}]}, {"sequence": "QVQLVESGGGLVQAGGSLRLSCAASGSIFAAYTMGWYRQAPGKERVFVAAITYTGGSTYYADSVKGRFTISRDNAKNTVYLQMNSLKPEDTAVYYCAARGRLCQGYYYWGQGTQVTVSS", "values": [{"measurement": "polyreactivity (PSR sort gate)", "value": "low polyreactivity"}]}, {"sequence": "QVQLVESGGGLVQAGGSLRLTCAASGRIFNYYAMGWYRQAPGKEREFVAAITRSGGRTYYADSVKGRFTISRDNAKNTVYLQMNSLKPEDTAVYYCAAPYGTYAYDYWGQGTQVTVSS", "values": [{"measurement": "polyreactivity (PSR sort gate)", "value": "high polyreactivity"}]}, {"sequence": "QVQLVEPGGGLVQAGGSLRLSCAASGRIFRGYAMGWYRQAPGKVRELVAANSQSGSSTYYADSVKGRFTISRDNAKNTVYLKMNSLKPEDTAVYYCAVKYLKHFGYWGQGTQVTVSS", "values": [{"measurement": "polyreactivity (PSR sort gate)", "value": "high polyreactivity"}]}, {"sequence": "QVQLVESGGGLVQAGGSLRLSCAAYYAMGWYRQAPGKERELVAAIDDGTSTNYADSVKGRFTISRDNAKNTVYLQMKSLKPEDTAVYYCNKLSEVTYYGSKFDYWGQGTQVTVSS", "values": [{"measurement": "polyreactivity (PSR sort gate)", "value": "low polyreactivity"}]}, {"sequence": "QVQLVESGGGLVQAGGSLRLSCAASGSIFDFYAMGWYRQAPGKERELVAAINRGGSTYYADSVKGRFTISRDNAKNTVYLQMNSLKPEDTAVYYCAASYFYWRANRGPRYYWGQGTQVTVSS", "values": [{"measurement": "polyreactivity (PSR sort gate)", "value": "high polyreactivity"}]}, {"sequence": "QVQLVESGGGLVQAGGSLRLSCAASGSIFGRYAMGWYRQAPGKERELVAAISRTGVSTYYADSVKGRFTISRDNAKNTVYLQMKSLKTEDSAVYYCKAVRLSWQYTYYYWGQGTQVTVSS", "values": [{"measurement": "polyreactivity (PSR sort gate)", "value": "high polyreactivity"}]}, {"sequence": "QVQLVESGGGLVQAGGSLRLSCAASGSTFPPNPMGWYRKATGKERELVSSIRRGGSTHYADSVKGRFTISRDNEKNTVYLQMNSLKPEDTAVYYCAKDVWRHYLNLYDYWGQGTQVTVSS", "values": [{"measurement": "polyreactivity (PSR sort gate)", "value": "low polyreactivity"}]}, {"sequence": "QVQLVESGGGLVQAGGSLRLSGAASGRYLFTWTAMGWYRQAPGIERELVAGITSGGNTYYADSVKGRFTISRDNPKNTVYLQMNSLKPEDTAVYYCAKGDGRRGDPYSRYDYCGQGTQVTVSS", "values": [{"measurement": "polyreactivity (PSR sort gate)", "value": "low polyreactivity"}]}, {"sequence": "QVQLVESGGGLVQAGGSLRLSCAASGRIFLSNAMGWYRQAPGKERELVASITSGGSTNYADSVKGRFTISRDNAKNTVYLQMNSLKPEDTAVYYCAKRYRHSGYFVGFNYWGQGTQVTVSS", "values": [{"measurement": "polyreactivity (PSR sort gate)", "value": "high polyreactivity"}]}, {"sequence": "QVQLVESGGVLVQAGGSLRLSCAASGFTFQAYTMGWYRQAPVKERELVAAISRSGGRTYYADSVKGRFTISRDNAKNTVYLQMNSLKPEDTAVYYCAKRTTYSDDYWGQGTQVTVSS", "values": [{"measurement": "polyreactivity (PSR sort gate)", "value": "high polyreactivity"}]}, {"sequence": "QVQLVESGGGLVKAGGSLRLSCAASGFTFTRYAMGWYRQAPGKDRELVAAISSGSRSYYADSVKGRFTISRDNANNTVYLQMNSLKPEDTAVYNCASPDYTYYGHYDSWGQGTQVTVSS", "values": [{"measurement": "polyreactivity (PSR sort gate)", "value": "high polyreactivity"}]}, {"sequence": "QVQLVESGGGLVQAGGSLRLSCAASGSIFRSYAMGWYRQAPGKERELVAGITSSGGSTYADSVKGRFTISRDNAKNTVYLQMNSLKPEDTAVYFCAKPGFEWLLTRLFSVSEYDYWGQGTQVTVSS", "values": [{"measurement": "polyreactivity (PSR sort gate)", "value": "low polyreactivity"}]}, {"sequence": "QVQLVESGGGLVQAGGSLRLICAASGIILGHKAMGWYRQAPGKERELVATITTRGGSTYYADSVKGRFTISRDNAKNTVYLQMNSLKPEDTAVFYCAARPYKSLHYWYDYWGQGTQVTVSS", "values": [{"measurement": "polyreactivity (PSR sort gate)", "value": "low polyreactivity"}]}, {"sequence": "QDQLVESGGGLVQAGGSLRLSCAASGSIFYRYAMGWYRQARGKVREFVAGITYSSGTTYYADSVKGRFTISRDNAKNTVYLQMNSLKPEETAVYYCAAELRSSYYRRAMDYCGQGTQVTVSS", "values": [{"measurement": "polyreactivity (PSR sort gate)", "value": "high polyreactivity"}]}, {"sequence": "QVQLVESGGWLVQAGGSLRLSCAASGSTFEDYVMGWYRQAPGTEREFVAAISRGSGSTYYADSVKGRFTISRDNAKNTVFLQMNSLKPEDTAVYYCAARSQLGYRTRYPTYYWGQGTQVTVSS", "values": [{"measurement": "polyreactivity (PSR sort gate)", "value": "high polyreactivity"}]}, {"sequence": "QVQLVESGGGLVQAGGSLRLSCAASGFIFDFYTMGWYRQAPGKERELVAAITNGGSTYYADSVKGRFTISRDNAKNTVYLQMNSLKPEDTAVYYCAAYYRSRHHGYDSWGQGTQVTVSS", "values": [{"measurement": "polyreactivity (PSR sort gate)", "value": "low polyreactivity"}]}]}
